Target: soluble prefusion-stabilized trimeric SARS-CoV-2 spike protein (SARS-CoV-2, Wuhan-Hu-1 (MN908947.3), UniProt P0DTC2, stabilised)
Assay: cryo-EM structure

B1: LY-CoV555 Fab (Fab, V domains shown)
VH: QVQLVQSGAEVKKPGSSVKVSCKASGGTFSNYAISWVRQAPGQGLEWMGRIIPILGIANYAQKFQGRVTITADKSTSTAYMELSSLRSEDTAVYYCARGYYEARHYYYYYAMDVWGQGTAVTVSS
VL: not shown
B1: binds.

Reference: paper doi:10.1101/2020.09.30.318972 (bioRxiv, 2020)
